Molecular target: T1, human angiotensin-converting enzyme 2 (ACE2), residues 1-615, untagged (human, UniProt Q9BYF1 18-615)
T1 construct: also called human ACE2; not shown: TwinStrepTag, C-terminal, cleaved; 8XHisTag, C-terminal, cleaved
Assay: SPR; […], Biacore X100; 10 mM HEPES pH 8.0, 150 mM NaCl, 0.05% Tween 20; […]; 1:1 binding model
Details: both partners purified

T1 sequence (Q9BYF1 18-615): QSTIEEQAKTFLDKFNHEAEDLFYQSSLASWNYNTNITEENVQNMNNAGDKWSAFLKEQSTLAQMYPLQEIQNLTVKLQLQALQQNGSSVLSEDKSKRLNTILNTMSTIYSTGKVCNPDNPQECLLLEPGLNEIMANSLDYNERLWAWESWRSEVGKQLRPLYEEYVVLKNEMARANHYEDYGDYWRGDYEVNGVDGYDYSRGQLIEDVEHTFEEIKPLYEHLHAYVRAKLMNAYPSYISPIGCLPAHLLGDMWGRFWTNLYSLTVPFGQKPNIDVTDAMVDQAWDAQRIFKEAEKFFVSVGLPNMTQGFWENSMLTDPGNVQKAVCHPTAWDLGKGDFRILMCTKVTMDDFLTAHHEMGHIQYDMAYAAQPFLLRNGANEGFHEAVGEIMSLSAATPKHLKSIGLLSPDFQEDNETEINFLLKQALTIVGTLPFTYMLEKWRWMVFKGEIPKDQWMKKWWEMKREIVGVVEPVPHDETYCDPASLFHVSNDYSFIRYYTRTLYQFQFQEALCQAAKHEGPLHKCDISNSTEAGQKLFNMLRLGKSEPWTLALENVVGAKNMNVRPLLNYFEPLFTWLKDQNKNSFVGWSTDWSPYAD

B1: SARS-CoV RBD-SD1 (S residues 306-577, Urbani strain), His-tagged (domain or fragment)
chain: not shown
**Q.** Does B1 bind?
**A.** binds
